In patent US20240116985A1, “STAPLED PEPTIDES AND METHODS THEREOF” (priority 2020, published 2024):
Starred links: 1 amine or outer side, 2 acyl side, 3 side chain; linkers in the order of their positions; H or OH if unused. Positions of bridges follow the written chain, without caps; N, C: chain ends. Non-standard residues stand in square brackets, D forms with d. Primed or numbered codes have the meaning given here. No end group written: not given here. *: point of attachment. PyrS2″ = (S)-3-amino-1-((pent-4-en-1-yloxy)carbonyl)pyrrolidine-3-carboxylic acid (stapling residue), C=CCCCOC(=O)N1CC[C@@](N[*:1])(C(=O)[*:2])C1; B5(23) = 2-amino-2-(pent-4-en-1-yl)hept-6-enoic acid (2,2-bis(4-pentenyl)glycine), stitching residue, C=CCCCC(CCCC=C)(N[*:1])C(=O)[*:2]; B5(4) = 2,2-bis(4-pentenyl)glycine = 2-amino-2-(pent-4-en-1-yl)hept-6-enoic acid (stitching residue), C=CCCCC(CCCC=C)(N[*:1])C(=O)[*:2]; B5(5) = 2,2-bis(4-pentenyl)glycine, 2-amino-2-(pent-4-en-1-yl)hept-6-enoic acid (stitching residue), C=CCCCC(CCCC=C)(N[*:1])C(=O)[*:2]; TfeGA(3) = (S)-2-amino-3-((carboxymethyl)(2,2,2-trifluoroethyl)amino)prop[anoic acid], O=C([C@H](CN(CC(=O)[*:3])CC(F)(F)F)N[*:1])[*:2]; TfeGA = (S)-2-amino-3-((carboxymethyl)(2,2,2-trifluoroethyl)amino)propanoic acid, O=C([C@H](CN(CC(=O)[*:3])CC(F)(F)F)N[*:1])[*:2]; PyrS2 = (S)-3-amino-1-((pent-4-en-1-yloxy)carbonyl)pyrrolidine-3-carboxylic acid, C=CCCCOC(=O)N1CC[C@@](N[*:1])(C(=O)[*:2])C1; (Pip)GlnR = (S)-2-amino-5-oxo-5-(piperidin-1-yl)pentanoic acid, O=C(CC[C@H](N[*:1])C(=O)[*:2])N1CCCCC1; B5(3) = 2,2-bis(4-pentenyl)glycine (stitching residue), C=CCCCC(CCCC=C)(N[*:1])C(=O)[*:2]; ProSAm3 = (allylsulfonyl)-D-proline, C=CCS(=O)(=O)N1CCC[C@@H]1C(=O)*; Phe(3-COOH) = N[C@@H](Cc1cccc(C(=O)O)c1)C(=O)O; Phe(2-CF3) = N[C@@H](Cc1ccccc1C(F)(F)F)C(=O)O; Abu(4,4,4-F3) = N[C@@H](CC(F)(F)F)C(=O)O; Bta = N[C@@H](Cc1csc2ccccc12)C(=O)O; αAllylPro = C=CC[C@@]1(C(=O)O)CCCN1; tBuAla = CC(C)(C)C[C@H](N)C(=O)O; 3Thi = N[C@@H](Cc1ccsc1)C(=O)O; S8 = C=CCCCCCC[C@](C)(N)C(=O)O; R5 = C=CCCC[C@@](C)(N)C(=O)O; 2F3MeF(3) = Phe analogue; Abu = CC[C@H](N)C(=O)O; Aib = CC(C)(N)C(=O)O

Molecular target: full-length beta-Catenin (Uniprot ID P35222) (Homo sapiens (Human)) (UniProt P35222)
Assay: fluorescence polarization competition; displacement of 5FAM-TCF4(10-53) from full-length beta-catenin
Target sequence in this assay (P35222 whole entry): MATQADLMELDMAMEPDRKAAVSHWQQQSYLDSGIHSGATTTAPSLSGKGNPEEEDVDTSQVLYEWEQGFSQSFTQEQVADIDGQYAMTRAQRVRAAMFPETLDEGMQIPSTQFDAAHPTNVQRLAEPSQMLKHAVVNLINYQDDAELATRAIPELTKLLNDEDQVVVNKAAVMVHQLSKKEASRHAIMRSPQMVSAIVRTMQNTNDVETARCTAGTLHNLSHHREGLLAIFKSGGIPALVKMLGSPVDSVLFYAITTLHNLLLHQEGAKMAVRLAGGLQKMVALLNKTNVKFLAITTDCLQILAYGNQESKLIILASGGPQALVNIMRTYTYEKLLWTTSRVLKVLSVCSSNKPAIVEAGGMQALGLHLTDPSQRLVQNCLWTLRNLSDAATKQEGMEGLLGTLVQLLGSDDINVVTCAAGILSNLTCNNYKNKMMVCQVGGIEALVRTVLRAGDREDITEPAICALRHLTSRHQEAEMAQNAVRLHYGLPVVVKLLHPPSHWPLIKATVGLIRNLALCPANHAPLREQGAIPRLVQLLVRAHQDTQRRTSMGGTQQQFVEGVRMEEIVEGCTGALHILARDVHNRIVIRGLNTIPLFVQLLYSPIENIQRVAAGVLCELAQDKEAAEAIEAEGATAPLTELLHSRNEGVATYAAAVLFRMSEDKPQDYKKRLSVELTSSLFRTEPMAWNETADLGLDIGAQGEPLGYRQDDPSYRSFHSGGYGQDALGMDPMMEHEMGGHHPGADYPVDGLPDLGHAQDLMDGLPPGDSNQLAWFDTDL

Binder	EC50 [µM]
Ac-[αAllylPro]DI[B5(4)]D[TfeGA(3)]AAFQ[S8]F[Bta]H-NH2 (staple 1-4, 4-11) [I-500]	0.176
Ac-[αAllylPro]D[Abu(4,4,4-F3)][B5(4)]DEAAFQ[S8]F[Bta]Q-NH2 (staple 1-4, 4-11; also: earlier eluting HPLC peak (staple isomer)) [I-501]	0.094

Molecular target: full-length beta-Catenin (Uniprot ID P35222) (Homo sapiens (Human)) (UniProt P35222)
Assay: fluorescence polarization competition; full-length beta-catenin, 5FAM-TCF4(10-53) probe as competitor
Target sequence in this assay (P35222 2-781 limits assumed): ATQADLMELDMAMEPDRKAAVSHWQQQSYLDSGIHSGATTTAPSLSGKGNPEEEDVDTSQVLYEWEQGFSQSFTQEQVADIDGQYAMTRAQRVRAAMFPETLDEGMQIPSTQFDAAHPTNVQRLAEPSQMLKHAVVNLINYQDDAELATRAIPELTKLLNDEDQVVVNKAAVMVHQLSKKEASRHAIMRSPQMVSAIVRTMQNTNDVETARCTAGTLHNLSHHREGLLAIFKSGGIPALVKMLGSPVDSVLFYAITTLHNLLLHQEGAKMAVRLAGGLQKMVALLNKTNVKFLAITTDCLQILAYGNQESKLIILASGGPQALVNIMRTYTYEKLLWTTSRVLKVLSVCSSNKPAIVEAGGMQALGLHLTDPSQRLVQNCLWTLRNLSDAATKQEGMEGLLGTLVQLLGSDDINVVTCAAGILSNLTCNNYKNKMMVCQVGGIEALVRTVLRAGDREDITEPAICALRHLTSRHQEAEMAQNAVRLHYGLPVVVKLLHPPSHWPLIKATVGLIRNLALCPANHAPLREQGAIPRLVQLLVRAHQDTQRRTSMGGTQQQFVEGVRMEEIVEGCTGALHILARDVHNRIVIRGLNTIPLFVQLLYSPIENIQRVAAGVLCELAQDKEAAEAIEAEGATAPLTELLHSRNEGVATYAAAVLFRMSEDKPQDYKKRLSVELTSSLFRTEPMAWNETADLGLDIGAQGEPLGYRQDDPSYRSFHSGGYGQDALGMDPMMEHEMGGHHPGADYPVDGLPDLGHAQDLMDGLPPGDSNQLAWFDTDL

Binder	IC50 [µM]
Ac-[αAllylPro]D[tBuAla][B5(3)]D[Phe(3-COOH)]QAFL[PyrS2″][2F3MeF(3)][SbMe2NapA]A-NH2 (staple 1-4, 4-11) [Ac-PL3-Asp-Npg-B5-Asp-3COOHF-Gln-Ala-Phe-Leu-PyrS2-2F3MeF-SbMe2NapA-Ala-NH2]	0.164
Ac-[αAllylPro]D[tBuAla][B5(3)]NT[Aib]AFN[PyrS2″][3Thi][Bta]K-NH2 (staple 1-4, 4-11) [Ac-PL3-Asp-Npg-B5-Asn-Thr-Aib-Ala-Phe-Asn-PyrS2-3Thi-BztA-Lys-NH2]	0.165
Ac-[αAllylPro]D[tBuAla][B5(3)]D[Phe(3-COOH)]QAFL[PyrS2″][Phe(2-CF3)][2F3MeW]A-NH2 (staple 1-4, 4-11) [Ac-PL3-Asp-Npg-B5-Asp-3COOHF-Gln-Ala-Phe-Leu-PyrS2-2F3MeF-2F3MeW-Ala-NH2]	4.75
Ac-[αAllylPro]D[tBuAla][B5(3)]NT[Aib]AFN[PyrS2″][3Thi][Bta]Y-NH2 (staple 1-4, 4-11) [Ac-PL3-Asp-Npg-B5-Asn-Thr-Aib-Ala-Phe-Asn-PyrS2-3Thi-BztA-Tyr-NH2]	0.31
Ac-[αAllylPro]D[tBuAla][B5(4)]LNAAFN[PyrS2][3Thi][Bta]Q-NH2 (staple 1-4, 4-11; also: staple isomer of later-eluting HPLC peak) [I-1563]	2.85
Ac-[αAllylPro]D[tBuAla][B5(4)]QNAAFN[PyrS2][3Thi][Bta]Q-NH2 (staple 1-4, 4-11) [I-1560]	0.368
Ac-[αAllylPro]D[tBuAla][B5(5)]NT[Aib]AFN[PyrS2″][3Thi][Bta]W-NH2 (staple 1-4, 4-11) [Ac-PL3-Asp-Npg-B5-Asn-Thr-Aib-Ala-Phe-Asn-PyrS2-3Thi-BztA-Trp-NH2]	0.754
Ac-[αAllylPro]D[tBuAla][B5(4)]NLAAFN[PyrS2][3Thi][Bta]Q-NH2 (staple 1-4, 4-11) [I-1570]	1.34
Ac-[αAllylPro]D[tBuAla][B5(23)]NQAAFN[PyrS2][3Thi][Bta]Q-NH2 (staple 1-4, 4-11; also: earlier-eluting HPLC staple isomer) [I-1566]	0.231
Ac-[αAllylPro]DA[B5(23)]NNAAFN[PyrS2][3Thi][Bta]Q-NH2 (staple 1-4, 4-11) [I-1556]	0.385
Ac-[αAllylPro]D[tBuAla][B5(23)]NQAAFN[PyrS2][3Thi][Bta]Q-NH2 (staple 1-4, 4-11; not fully specified; printed as Ac-PL3-Asp-Npg-B5-Asn-Gln-Ala-Ala-Phe-Asn-PyrS2-3Thi-BztA-Gln-NH2) [I-1567]	0.182
Ac-[αAllylPro]D[tBuAla][B5(4)]NYAAFN[PyrS2][3Thi][Bta]Q-NH2 (staple 1-4, 4-11; also: staple isomer of later-eluting HPLC peak) [I-1569]	2.66
Ac-[αAllylPro]D[tBuAla][B5(4)]TNAAFN[PyrS2][3Thi][Bta]Q-NH2 (staple 1-4, 4-11) [I-1559]	9.68
Ac-[αAllylPro]D[tBuAla][B5(5)]NT[Aib]AFN[PyrS2″][3Thi][Bta]V-NH2 (staple 1-4, 4-11) [Ac-PL3-Asp-Npg-B5-Asn-Thr-Aib-Ala-Phe-Asn-PyrS2-3Thi-BztA-Val-NH2]	0.475
Ac-[αAllylPro]D[tBuAla][B5(5)]D[Phe(3-COOH)][Aib]AF[Abu][PyrS2″][3Thi][Bta][(NHEt)GlnR]A-NH2 (staple 1-4, 4-11) [Ac-PL3-Asp-Npg-B5-Asp-3COOHF-Aib-Ala-Phe-Abu-PyrS2-3Thi-BztA-[NHEt]GlnR-Ala-NH2]	0.007
Ac-[αAllylPro]D[tBuAla][B5(5)]D[TfeGA]AAFL[PyrS2″][3Thi][Bta][(Pip)GlnR]A-NH2 (staple 1-4, 4-11) [Ac-PL3-Asp-Npg-B5-Asp-TfeGA-Ala-Ala-Phe-Leu-PyrS2-3Thi-BztA-[Pip]GlnR-Ala-NH2]	0.019
Ac-[αAllylPro]D[tBuAla][B5(4)]SNAAFN[PyrS2][3Thi][Bta]Q-NH2 (staple 1-4, 4-11) [I-1561]	2.6

Binder	IC50 [µM]
[ProSAm3]D[tBuAla][B5(4)]DDAAFN[PyrS2″][3Thi][Bta]Q-NH2 (staple (positions not given here); staple 4-11; not fully specified (bridges); printed as ProSAm3-Asp-Npg-B5-Asp-Asp-Ala-Ala-Phe-Asn-PyrS2-3Thi-BztA-Gln-NH2; also: staple isomer of earlier-eluting HPLC peak) [I-1576]	0.224
Ac-[αAllylPro]D[tBuAla][B5(3)]D[TfeGA]AAFL[PyrS2″][3Thi][Bta][Me2Gln]A-NH2 (staple 1-4, 4-11) [Ac-PL3-Asp-Npg-B5-Asp-TfeGA-Ala-Ala-Phe-Leu-PyrS2-3Thi-BztA-Me2Gln-Ala-NH2]	0.01
Ac-[αAllylPro]D[tBuAla][B5(4)]LNAAFN[PyrS2][3Thi][Bta]Q-NH2 (staple 1-4, 4-11; also: staple isomer of earlier-eluting HPLC peak) [I-1562]	5.02
Ac-[αAllylPro]D[tBuAla][B5(5)]NT[Aib]AFN[PyrS2″][3Thi][Bta]L-NH2 (staple 1-4, 4-11) [Ac-PL3-Asp-Npg-B5-Asn-Thr-Aib-Ala-Phe-Asn-PyrS2-3Thi-BztA-Leu-NH2]	0.627
Ac-[αAllylPro]D[tBuAla][B5(3)]D[Phe(3-COOH)][Aib]AF[Abu][PyrS2″][Phe(2-CF3)][Bta][Me2Gln]A-NH2 (staple 1-4, 4-11) [Ac-PL3-Asp-Npg-B5-Asp-3COOHF-Aib-Ala-Phe-Abu-PyrS2-2F3MeF-BztA-Me2Gln-Ala-NH2]	0.038
[ProSAm3]D[tBuAla][B5(4)]DDAAFN[PyrS2″][3Thi][Bta]Q-NH2 (staple (positions not given here); staple 4-11; not fully specified (bridges); printed as ProSAm3-Asp-Npg-B5-Asp-Asp-Ala-Ala-Phe-Asn-PyrS2-3Thi-BztA-Gln-NH2; also: staple isomer of later-eluting HPLC peak) [I-1577]	0.045
Ac-[αAllylPro]D[tBuAla][B5(5)]D[Phe(3-COOH)][Aib]AF[Abu][PyrS2″][3Thi][Bta][(Pip)GlnR]A-NH2 (staple 1-4, 4-11) [Ac-PL3-Asp-Npg-B5-Asp-3COOHF-Aib-Ala-Phe-Abu-PyrS2-3Thi-BztA-[Pip]GlnR-Ala-NH2]	0.007
Ac-[αAllylPro]D[tBuAla][B5(3)]D[Phe(3-COOH)][Aib]AF[Abu][PyrS2″][3Thi][Bta][Me2Gln]A-NH2 (staple 1-4, 4-11) [Ac-PL3-Asp-Npg-B5-Asp-3COOHF-Aib-Ala-Phe-Abu-PyrS2-3Thi-BztA-Me2Gln-Ala-NH2]	0.007
Ac-[αAllylPro]D[tBuAla][B5(23)]NNAAFL[PyrS2][3Thi][Bta]Q-NH2 (staple 1-4, 4-11) [I-1557]	0.342
Ac-[αAllylPro]D[tBuAla][B5(5)]D[Phe(3-COOH)]AAFL[PyrS2″][Phe(2-CF3)][Bta][Me2Gln]A-NH2 (staple 1-4, 4-11) [Ac-PL3-Asp-Npg-B5-Asp-3COOHF-Ala-Ala-Phe-Leu-PyrS2-2F3MeF-BztA-Me2Gln-Ala-NH2]	0.015
Ac-[αAllylPro]D[tBuAla][B5(4)]NYAAFN[PyrS2][3Thi][Bta]Q-NH2 (staple 1-4, 4-11; also: staple isomer of earlier-eluting HPLC peak) [I-1568]	7.18
Ac-[αAllylPro]D[tBuAla][B5(5)]D[Phe(3-COOH)]AAFL[PyrS2″][Phe(2-CF3)][Bta][(NHEt)GlnR]A-NH2 (staple 1-4, 4-11) [Ac-PL3-Asp-Npg-B5-Asp-3COOHF-Ala-Ala-Phe-Leu-PyrS2-2F3MeF-BztA-[NHEt]GlnR-Ala-NH2]	0.024
Ac-[αAllylPro]D[tBuAla][B5(3)]D[Phe(3-COOH)]QAFL[PyrS2″][Phe(2-CF3)][RbMe2NapA]A-NH2 (staple 1-4, 4-11) [Ac-PL3-Asp-Npg-B5-Asp-3COOHF-Gln-Ala-Phe-Leu-PyrS2-2F3MeF-RbMe2NapA-Ala-NH2]	0.047
Ac-PD[tBuAla][R5]DDAAFL[PyrS2][3Thi][Bta]Q-NH2 (staple 4-11; also: staple -CH=CH- reduced to -CH2-CH2-) [I-1810]	0.416
Ac-[αAllylPro]D[tBuAla][B5(3)]D[TfeGA]AAFL[PyrS2″][3Thi][Bta][(NHEt)GlnR]A-NH2 (staple 1-4, 4-11) [Ac-PL3-Asp-Npg-B5-Asp-TfeGA-Ala-Ala-Phe-Leu-PyrS2-3Thi-BztA-[NHEt]GlnR-Ala-NH2]	0.014
Ac-[αAllylPro]D[tBuAla][B5(4)]QQAAFN[PyrS2][3Thi][Bta]Q-NH2 (staple 1-4, 4-11) [I-1558]	0.678

Molecular target: full-length beta-Catenin (Uniprot ID P35222) (Homo sapiens (Human)) (UniProt P35222)
Assay: fluorescence polarization competition; full-length beta-catenin with 5FAM-TCF4(10-53) probe as competitor
Target sequence in this assay (P35222 2-781 limits assumed): as above

Binder	IC50 [µM]
Ac-[αAllylPro]DI[B5(4)]D[TfeGA(3)]AAFQ[S8]F[Bta]H-NH2 (staple 1-4, 4-11) [I-500]	0.176
Ac-[αAllylPro]D[Abu(4,4,4-F3)][B5(4)]DEAAFQ[S8]F[Bta]Q-NH2 (staple 1-4, 4-11; also: earlier eluting HPLC peak (staple isomer)) [I-501]	0.094
